Publication PMC13598225, “Alternative splicing of synaptotagmin 7 regulates oligomerization and short-term synaptic plasticity” (Proceedings of the National Academy of Sciences of the …, 2026)

Target: T1, α-syt7cyto immobilised for HaloTag pull-down (UniProt Q9R0N7-1 38-403)
T1 construct: synaptotagmin 7, α splice variant, cytoplasmic domain; The sentence on syt1-fl says only 'immobilized syt7'; also called immobilized syt7
Experiment: pull-down; HaloTag pull-down; syt7 immobilised; syt1-fl reconstituted into liposomes; Ca2+ against EGTA
Settings: both partners purified

T1 sequence (Q9R0N7 38-403): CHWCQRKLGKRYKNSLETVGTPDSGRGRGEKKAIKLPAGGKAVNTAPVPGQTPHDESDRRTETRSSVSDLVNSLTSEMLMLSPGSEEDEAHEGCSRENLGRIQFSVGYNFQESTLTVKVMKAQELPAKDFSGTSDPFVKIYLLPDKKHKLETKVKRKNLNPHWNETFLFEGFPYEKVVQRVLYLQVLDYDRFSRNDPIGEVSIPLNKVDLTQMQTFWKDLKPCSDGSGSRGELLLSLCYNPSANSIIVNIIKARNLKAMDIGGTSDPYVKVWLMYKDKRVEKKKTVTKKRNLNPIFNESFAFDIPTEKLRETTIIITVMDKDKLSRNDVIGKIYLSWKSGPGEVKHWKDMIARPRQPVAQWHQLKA

B1: syt1-fl reconstituted into liposomes (full-length synaptotagmin 1) (natural protein, UniProt P21707 1-421, looked up)
chain: MVSASHPEALAAPVTTVATLVPHNATEPASPGEGKEDAFSKLKQKFMNELHKIPLPPWALIAIAIVAVLLVVTCCFCVCKKCLFKKKNKKKGKEKGGKNAINMKDVKDLGKTMKDQALKDDDAETGLTDGEEKEEPKEEEKLGKLQYSLDYDFQNNQLLVGIIQAAELPALDMGGTSDPYVKVFLLPDKKKKFETKVHRKTLNPVFNEQFTFKVPYSELGGKTLVMAVYDFDRFSKHDIIGEFKVPMNTVDFGHVTEEWRDLQSAEKEEQEKLGDICFSLRYVPTAGKLTVVILEAKNLKKMDVGGLSDPYVKIHLMQNGKRLKKKKTTIKKNTLNPYYNESFSFEVPFEQIQKVQVVVTVLDYDKIGKNDAIGKVFVGYNSTGAELRHWSDMLANPRRPIAQWHTLQVEEEVDAMLAVKK
notes: synaptotagmin 1, full length (fl); Construct and host are in SI Appendix; source: reconstituted into liposomes
binding in Ca2+ relative to EGTA (ratio): 1.46 ± 0.15
